Experimental findings from publication PMC11931667, “A new view of missense mutations in α‐mannosidosis using molecular dynamics conformational ensembles” (Protein Science : A Publication of the Protein Society, 2025) are described below.

The series deals with the molecule itself. As to the kind of experiment: native gel or EMSA; PAGE run under native conditions and Western blot with anti-His IgG of hLAMAN expressed in K. phaffii for the indicated time periods; single band at approx. 230 kDa.

B1: Human lysosomal α‐mannosidase (enzyme, UniProt O00754 50-1011, looked up)
chain: GGYETCPTVQPNMLNVHLLPHTHDDVGWLKTVDQYFYGIKNDIQHAGVQYILDSVISALLADPTRRFIYVEIAFFSRWWHQQTNATQEVVRDLVRQGRLEFANGGWVMNDEAATHYGAIVDQMTLGLRFLEDTFGNDGRPRVAWHIDPFGHSREQASLFAQMGFDGFFFGRLDYQDKWVRMQKLEMEQVWRASTSLKPPTADLFTGVLPNGYNPPRNLCWDVLCVDQPLVEDPRSPEYNAKELVDYFLNVATAQGRYYRTNHTVMTMGSDFQYENANMWFKNLDKLIRLVNAQQAKGSSVHVLYSTPACYLWELNKANLTWSVKHDDFFPYADGPHQFWTGYFSSRPALKRYERLSYNFLQVCNQLEALVGLAANVGPYGSGDSAPLNEAMAVLQHHDAVSGTSRQHVANDYARQLAAGWGPCEVLLSNALARLRGFKDHFTFCQQLNISICPLSQTAARFQVIVYNPLGRKVNWMVRLPVSEGVFVVKDPNGRTVPSDVVIFPSSDSQAHPPELLFSASLPALGFSTYSVAQVPRWKPQARAPQPIPRRSWSPALTIENEHIRATFDPDTGLLMEIMNMNQQLLLPVRQTFFWYNASIGDNESDQASGAYIFRPNQQKPLPVSRWAQIHLVKTPLVQEVHQNFSAWCSQVVRLYPGQRHLELEWSVGPIPVGDTWGKEVISRFDTPLETKGRFYTDSNGREILERRRDYRPTWKLNQTEPVAGNYYPVNTRIYITDGNMQLTVLTDRSQGGSSLRDGSLELMVHRRLLKDDGRGVSEPLMENGSGAWVRGRHLVLLDTAQAAAAGHRLLAEQEVLAPQVVLAPGGGAAYNLGAPPRTQFSGLRRDLPPSVHLLTLASWGPEMVLLRLEHQFAVGEDSGRNLSAPVTLNLRDLFSTFTITRLQETTLVANQLREAASRLKWTTNTGPTPHQTPYQLDPANITLEPMEIRTFLASVQWKEVDG
notes: human lysosomal alpha-mannosidase (hLAMAN, EC 3.2.1.24), gene MAN2B1; That vector probably adds the alpha-factor secretion signal; it speaks of a homodimer of the polypeptides A-E, (A-E)2; also called hLAMAN; MAN2B1; source: K. phaffii X33 (pPICZalpha), methanol-induced; aliquots of pellet and supernatant analysed, not purified
Broadly, the stoichiometry N is a count of units in the complex or per binding partner. With B1, the “stoichiometry N” value is 2.
